{"source": "patent US20220143024A1", "about": "“METHODS OF USING IMIPRIDONES” (Board of Regents, The University of Texas System, priority 2019, published 2022)", "test_in_all_cases": "BioID-MS", "key": {"ECSIT (human)": {"biological_target": "ECSIT (human) (UniProt Q9BQ95)", "sequence (Q9BQ95 49-431 limits assumed)": "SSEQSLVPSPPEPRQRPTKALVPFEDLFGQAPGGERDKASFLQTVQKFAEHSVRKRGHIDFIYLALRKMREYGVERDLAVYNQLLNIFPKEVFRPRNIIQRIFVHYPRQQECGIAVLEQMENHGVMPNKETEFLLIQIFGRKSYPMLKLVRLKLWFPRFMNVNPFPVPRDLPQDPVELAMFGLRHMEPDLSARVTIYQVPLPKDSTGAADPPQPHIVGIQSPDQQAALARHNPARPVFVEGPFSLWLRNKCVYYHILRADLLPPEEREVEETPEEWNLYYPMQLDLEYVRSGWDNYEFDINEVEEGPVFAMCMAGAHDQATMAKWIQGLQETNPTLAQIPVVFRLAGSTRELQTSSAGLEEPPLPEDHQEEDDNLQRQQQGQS"}, "SHMT2 (human)": {"biological_target": "SHMT2 (human) (UniProt P34897)"}, "EFHA1 (human)": {"biological_target": "EFHA1 (human) (UniProt Q8IYU8)", "sequence (Q8IYU8 23-434 limits assumed)": "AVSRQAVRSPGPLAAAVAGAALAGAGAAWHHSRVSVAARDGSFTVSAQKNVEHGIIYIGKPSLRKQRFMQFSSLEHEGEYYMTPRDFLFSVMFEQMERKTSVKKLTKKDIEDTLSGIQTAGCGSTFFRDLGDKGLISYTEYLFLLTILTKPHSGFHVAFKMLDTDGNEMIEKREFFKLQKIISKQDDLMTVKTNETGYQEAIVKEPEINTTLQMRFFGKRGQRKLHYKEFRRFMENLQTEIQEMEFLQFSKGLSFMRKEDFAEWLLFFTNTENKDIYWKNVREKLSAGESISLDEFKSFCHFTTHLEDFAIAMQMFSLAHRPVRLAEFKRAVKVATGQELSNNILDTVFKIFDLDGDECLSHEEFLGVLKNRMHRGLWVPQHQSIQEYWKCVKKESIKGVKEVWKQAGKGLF"}, "MICU2 (human)": {"biological_target": "MICU2 (human) (UniProt Q8IYU8)", "sequence (Q8IYU8 23-434 limits assumed)": "as above"}, "NDUFAF1 (human)": {"biological_target": "NDUFAF1 (human) (UniProt Q9Y375)"}, "LYRM7 (human)": {"biological_target": "LYRM7 (human) (UniProt Q5U5X0)"}, "CHCHD3 (human)": {"biological_target": "CHCHD3 (human) (UniProt Q9NX63)"}, "FMC1 (human)": {"biological_target": "FMC1 (human) (UniProt Q96HJ9)"}, "HIBCH (human)": {"biological_target": "HIBCH (human) (UniProt Q6NVY1)"}, "MGME1 (human)": {"biological_target": "MGME1 (human) (UniProt Q9BQP7)"}, "SUCLG2 (human)": {"biological_target": "SUCLG2 (human) (UniProt Q96I99)", "sequence (Q96I99 38-432 limits assumed)": "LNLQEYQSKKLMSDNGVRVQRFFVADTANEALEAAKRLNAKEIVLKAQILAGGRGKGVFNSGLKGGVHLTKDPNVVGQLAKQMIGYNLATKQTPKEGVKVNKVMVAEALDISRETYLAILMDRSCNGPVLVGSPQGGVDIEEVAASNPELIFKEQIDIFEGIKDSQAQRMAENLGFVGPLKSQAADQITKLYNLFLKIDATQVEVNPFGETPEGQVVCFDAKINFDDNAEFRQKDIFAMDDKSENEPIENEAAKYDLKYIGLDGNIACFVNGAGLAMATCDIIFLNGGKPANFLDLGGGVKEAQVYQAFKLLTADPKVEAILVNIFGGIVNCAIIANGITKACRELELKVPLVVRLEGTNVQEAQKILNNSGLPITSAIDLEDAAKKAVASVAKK"}, "ABAT (human)": {"biological_target": "ABAT (human) (UniProt P80404)", "sequence (P80404 29-500 limits assumed)": "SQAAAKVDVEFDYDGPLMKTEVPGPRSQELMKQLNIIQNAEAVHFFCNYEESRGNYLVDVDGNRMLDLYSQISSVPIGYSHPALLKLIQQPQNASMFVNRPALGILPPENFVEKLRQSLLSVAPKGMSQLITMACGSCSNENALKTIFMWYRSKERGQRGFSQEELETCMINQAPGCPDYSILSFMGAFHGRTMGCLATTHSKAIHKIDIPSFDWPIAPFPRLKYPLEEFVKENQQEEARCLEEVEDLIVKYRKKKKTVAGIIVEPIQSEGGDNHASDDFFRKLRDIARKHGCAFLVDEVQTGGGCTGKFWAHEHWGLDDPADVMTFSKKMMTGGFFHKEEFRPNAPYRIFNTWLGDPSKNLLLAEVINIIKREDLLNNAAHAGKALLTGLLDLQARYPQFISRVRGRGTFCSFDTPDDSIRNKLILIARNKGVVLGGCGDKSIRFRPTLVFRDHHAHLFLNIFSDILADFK"}, "SPRYD4 (human)": {"biological_target": "SPRYD4 (human) (UniProt Q8WW59)"}, "HADH (human)": {"biological_target": "HADH (human) (UniProt Q16836)", "sequence (Q16836 13-314 limits assumed)": "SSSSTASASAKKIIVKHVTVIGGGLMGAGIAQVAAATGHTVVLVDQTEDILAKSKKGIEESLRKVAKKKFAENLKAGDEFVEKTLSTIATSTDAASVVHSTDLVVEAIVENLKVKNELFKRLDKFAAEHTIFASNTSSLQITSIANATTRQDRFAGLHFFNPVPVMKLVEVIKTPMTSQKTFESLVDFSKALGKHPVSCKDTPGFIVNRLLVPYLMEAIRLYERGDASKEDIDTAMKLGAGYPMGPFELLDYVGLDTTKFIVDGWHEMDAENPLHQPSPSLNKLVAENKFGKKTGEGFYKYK"}, "OGDH (human)": {"biological_target": "OGDH (human) (UniProt Q02218)"}, "MPST (human)": {"biological_target": "MPST (human) (UniProt P25325)"}, "C2orf56 (human)": {"biological_target": "C2orf56 (human) (UniProt Q7L592)"}, "MRPL44 (human)": {"biological_target": "MRPL44 (human) (UniProt Q9H9J2)"}, "IARS2 (human)": {"biological_target": "IARS2 (human) (UniProt Q9NSE4)"}, "NDUFA7 (human)": {"biological_target": "NDUFA7 (human) (UniProt O95182)", "sequence (O95182 2-113 limits assumed)": "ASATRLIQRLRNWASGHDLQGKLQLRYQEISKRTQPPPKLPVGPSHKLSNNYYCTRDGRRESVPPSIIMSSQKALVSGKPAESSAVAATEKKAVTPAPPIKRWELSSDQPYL"}, "IDI1 (human)": {"biological_target": "IDI1 (human) (UniProt Q13907)"}, "TARS2 (human)": {"biological_target": "TARS2 (human) (UniProt Q9BW92)", "sequence (Q9BW92 whole entry)": "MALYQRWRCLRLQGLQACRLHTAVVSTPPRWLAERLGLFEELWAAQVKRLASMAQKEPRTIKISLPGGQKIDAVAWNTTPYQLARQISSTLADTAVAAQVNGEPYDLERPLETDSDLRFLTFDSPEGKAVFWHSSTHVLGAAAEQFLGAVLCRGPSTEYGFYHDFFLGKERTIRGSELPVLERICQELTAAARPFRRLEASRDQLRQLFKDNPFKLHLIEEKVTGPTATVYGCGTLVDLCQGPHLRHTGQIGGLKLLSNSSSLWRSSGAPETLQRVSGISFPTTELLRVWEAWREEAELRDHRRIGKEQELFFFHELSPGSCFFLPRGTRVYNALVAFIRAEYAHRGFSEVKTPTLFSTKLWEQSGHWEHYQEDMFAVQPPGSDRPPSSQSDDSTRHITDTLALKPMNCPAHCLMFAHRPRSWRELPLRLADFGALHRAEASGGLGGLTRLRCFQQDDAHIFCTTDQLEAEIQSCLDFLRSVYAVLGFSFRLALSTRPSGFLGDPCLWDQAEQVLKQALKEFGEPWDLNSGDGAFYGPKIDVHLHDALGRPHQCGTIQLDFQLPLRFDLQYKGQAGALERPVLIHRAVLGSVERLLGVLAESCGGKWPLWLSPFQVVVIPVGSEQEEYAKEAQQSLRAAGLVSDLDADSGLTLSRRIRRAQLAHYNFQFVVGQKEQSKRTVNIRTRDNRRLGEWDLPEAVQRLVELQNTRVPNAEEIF"}, "ACADVL (human)": {"biological_target": "ACADVL (human) (UniProt P49748)"}, "GRSF1 (human)": {"biological_target": "GRSF1 (human) (UniProt Q12849)"}, "NDUFA2 (human)": {"biological_target": "NDUFA2 (human) (UniProt O43678)", "sequence (O43678 2-99 limits assumed)": "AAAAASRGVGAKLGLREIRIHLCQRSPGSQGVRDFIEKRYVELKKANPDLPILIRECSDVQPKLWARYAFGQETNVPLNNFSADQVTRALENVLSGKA"}, "BCKDHB (human)": {"biological_target": "BCKDHB (human) (UniProt P21953)", "sequence (P21953 51-392 limits assumed)": "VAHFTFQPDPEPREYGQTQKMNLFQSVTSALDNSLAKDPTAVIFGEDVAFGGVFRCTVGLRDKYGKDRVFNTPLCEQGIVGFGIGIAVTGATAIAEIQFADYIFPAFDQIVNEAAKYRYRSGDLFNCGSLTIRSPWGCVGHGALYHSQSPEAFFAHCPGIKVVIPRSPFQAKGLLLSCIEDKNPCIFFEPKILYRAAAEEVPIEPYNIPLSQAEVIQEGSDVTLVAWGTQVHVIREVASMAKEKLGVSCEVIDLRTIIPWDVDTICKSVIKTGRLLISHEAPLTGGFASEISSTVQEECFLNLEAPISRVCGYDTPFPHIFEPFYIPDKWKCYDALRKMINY"}, "ARG2 (human)": {"biological_target": "ARG2 (human) (UniProt P78540)"}, "ACADSB (human)": {"biological_target": "ACADSB (human) (UniProt P45954)"}, "LYRM4 (human)": {"biological_target": "LYRM4 (human) (UniProt Q9HD34)"}, "NADK2 (human)": {"biological_target": "NADK2 (human) (UniProt Q4G0N4)"}, "GLRX5 (human)": {"biological_target": "GLRX5 (human) (UniProt Q86SX6)"}, "ETFB (human)": {"biological_target": "ETFB (human) (UniProt P38117)"}, "FECH (human)": {"biological_target": "FECH (human) (UniProt P22830)"}, "MRPS23 (human)": {"biological_target": "MRPS23 (human) (UniProt Q9Y3D9)"}, "NMNAT3 (human)": {"biological_target": "NMNAT3 (human) (UniProt Q96T66)", "sequence (Q96T66 whole entry)": "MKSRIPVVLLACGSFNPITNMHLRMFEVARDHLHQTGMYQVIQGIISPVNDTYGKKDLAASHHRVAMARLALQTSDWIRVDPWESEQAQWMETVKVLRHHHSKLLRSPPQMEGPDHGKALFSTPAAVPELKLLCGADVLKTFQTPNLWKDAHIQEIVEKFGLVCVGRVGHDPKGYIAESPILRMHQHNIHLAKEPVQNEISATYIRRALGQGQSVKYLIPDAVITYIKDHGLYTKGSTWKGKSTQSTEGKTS"}, "PCK2 (human)": {"biological_target": "PCK2 (human) (UniProt Q16822)"}, "SUPV3L1 (human)": {"biological_target": "SUPV3L1 (human) (UniProt Q8IYB8)", "sequence (Q8IYB8 23-786 limits assumed)": "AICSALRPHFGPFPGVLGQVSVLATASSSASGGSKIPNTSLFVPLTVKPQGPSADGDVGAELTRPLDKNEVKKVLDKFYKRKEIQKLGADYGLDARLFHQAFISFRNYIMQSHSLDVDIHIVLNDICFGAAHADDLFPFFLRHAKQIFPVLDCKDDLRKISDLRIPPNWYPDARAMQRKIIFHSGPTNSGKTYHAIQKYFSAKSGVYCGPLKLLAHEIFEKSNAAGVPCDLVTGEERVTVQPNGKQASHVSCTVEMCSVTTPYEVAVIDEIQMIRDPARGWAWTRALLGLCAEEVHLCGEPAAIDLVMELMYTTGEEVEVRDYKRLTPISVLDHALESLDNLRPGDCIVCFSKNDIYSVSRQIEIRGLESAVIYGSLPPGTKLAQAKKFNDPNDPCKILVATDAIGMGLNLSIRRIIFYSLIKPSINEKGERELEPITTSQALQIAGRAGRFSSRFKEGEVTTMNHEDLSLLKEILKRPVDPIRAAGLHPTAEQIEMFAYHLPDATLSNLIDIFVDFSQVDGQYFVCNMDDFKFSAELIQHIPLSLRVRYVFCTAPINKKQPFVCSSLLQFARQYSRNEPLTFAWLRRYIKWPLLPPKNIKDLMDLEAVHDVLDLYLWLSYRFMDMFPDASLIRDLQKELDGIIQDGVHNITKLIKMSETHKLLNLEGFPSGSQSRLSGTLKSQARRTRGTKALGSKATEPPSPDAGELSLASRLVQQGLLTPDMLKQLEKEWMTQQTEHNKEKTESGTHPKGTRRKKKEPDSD"}, "PYCR2 (human)": {"biological_target": "PYCR2 (human) (UniProt Q96C36)"}, "ATPAF2 (human)": {"biological_target": "ATPAF2 (human) (UniProt Q8N5M1)"}, "CDK5RAP1 (human)": {"biological_target": "CDK5RAP1 (human) (UniProt Q96SZ6)"}, "COX5B (human)": {"biological_target": "COX5B (human) (UniProt P10606)"}, "NDUFAF2 (human)": {"biological_target": "NDUFAF2 (human) (UniProt Q8N183)"}, "NDUFA12 (human)": {"biological_target": "NDUFA12 (human) (UniProt Q9UI09)"}, "OXA1L (human)": {"biological_target": "OXA1L (human) (UniProt Q15070)"}, "EARS2 (human)": {"biological_target": "EARS2 (human) (UniProt Q5JPH6)"}, "CRAT (human)": {"biological_target": "CRAT (human) (UniProt P43155)"}, "MRPL45 (human)": {"biological_target": "MRPL45 (human) (UniProt Q9BRJ2)"}, "NDUFAF5 (human)": {"biological_target": "NDUFAF5 (human) (UniProt Q5TEU4)"}, "MRPS11 (human)": {"biological_target": "MRPS11 (human) (UniProt P82912)"}, "SDHAF3 (human)": {"biological_target": "SDHAF3 (human) (UniProt Q9NRP4)", "sequence (Q9NRP4 31-125 limits assumed)": "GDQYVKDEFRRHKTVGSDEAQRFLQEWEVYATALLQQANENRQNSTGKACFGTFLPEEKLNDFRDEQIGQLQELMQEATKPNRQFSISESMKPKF"}, "ACN9 (human)": {"biological_target": "ACN9 (human) (UniProt Q9NRP4)", "sequence (Q9NRP4 31-125 limits assumed)": "as above"}, "THNSL1 (human)": {"biological_target": "THNSL1 (human) (UniProt Q8IYQ7)"}, "MRPS24 (human)": {"biological_target": "MRPS24 (human) (UniProt Q96EL2)"}, "MRPL21 (human)": {"biological_target": "MRPL21 (human) (UniProt Q7Z2W9)"}, "HSPA1L (human)": {"biological_target": "HSPA1L (human) (UniProt P34931)"}, "XPNPEP3 (human)": {"biological_target": "XPNPEP3 (human) (UniProt Q9NQH7)", "sequence (Q9NQH7 32-507 limits assumed)": "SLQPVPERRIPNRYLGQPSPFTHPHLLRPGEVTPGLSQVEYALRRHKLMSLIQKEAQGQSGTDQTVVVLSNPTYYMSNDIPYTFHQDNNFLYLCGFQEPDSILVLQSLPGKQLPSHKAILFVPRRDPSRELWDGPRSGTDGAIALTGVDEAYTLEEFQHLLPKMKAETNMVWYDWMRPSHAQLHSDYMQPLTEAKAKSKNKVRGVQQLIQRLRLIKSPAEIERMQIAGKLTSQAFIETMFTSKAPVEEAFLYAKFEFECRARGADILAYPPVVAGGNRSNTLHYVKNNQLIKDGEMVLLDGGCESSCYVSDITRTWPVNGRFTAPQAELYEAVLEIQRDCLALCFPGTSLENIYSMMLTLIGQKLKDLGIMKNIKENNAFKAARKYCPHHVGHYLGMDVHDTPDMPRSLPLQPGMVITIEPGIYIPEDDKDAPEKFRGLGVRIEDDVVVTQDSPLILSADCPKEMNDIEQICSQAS"}, "NDUFAF7 (human)": {"biological_target": "NDUFAF7 (human) (UniProt Q7L592)"}, "MRPL47 (human)": {"biological_target": "MRPL47 (human) (UniProt Q9HD33)"}}}
{"substance": "FlagBirA-ClpP (Y118A) (from UniProt P06709 1-321; Q16740 57-277) (enzyme)", "values": [{"measurement": "Log2 Fold change (vs control)", "setting": "ECSIT (human)", "result": -1.04, "unit": "log2"}, {"measurement": "Log2 Fold change (vs control)", "setting": "SHMT2 (human)", "result": -0.25, "unit": "log2"}, {"measurement": "Log2 Fold change (vs control)", "setting": "EFHA1 (human)", "result": -4.17, "unit": "log2"}, {"measurement": "Log2 Fold change (vs control)", "setting": "MICU2 (human)", "result": -0.18, "unit": "log2"}, {"measurement": "Log2 Fold change (vs control)", "setting": "NDUFAF1 (human)", "result": -4.32, "unit": "log2"}, {"measurement": "Log2 Fold change (vs control)", "setting": "LYRM7 (human)", "result": 0.23, "unit": "log2"}, {"measurement": "Log2 Fold change (vs control)", "setting": "CHCHD3 (human)", "result": -2.46, "unit": "log2"}, {"measurement": "Log2 Fold change (vs control)", "setting": "FMC1 (human)", "result": 0.41, "unit": "log2"}, {"measurement": "Log2 Fold change (vs control)", "setting": "HIBCH (human)", "result": 0.35, "unit": "log2"}, {"measurement": "Log2 Fold change (vs control)", "setting": "MGME1 (human)", "result": 0.44, "unit": "log2"}, {"measurement": "Log2 Fold change (vs control)", "setting": "SUCLG2 (human)", "result": -0.49, "unit": "log2"}, {"measurement": "Log2 Fold change (vs control)", "setting": "ABAT (human)", "result": -3.58, "unit": "log2"}, {"measurement": "Log2 Fold change (vs control)", "setting": "SPRYD4 (human)", "result": 0.22, "unit": "log2"}, {"measurement": "Log2 Fold change (vs control)", "setting": "HADH (human)", "result": 0.8, "unit": "log2"}, {"measurement": "Log2 Fold change (vs control)", "setting": "OGDH (human)", "result": 1.67, "unit": "log2"}, {"measurement": "Log2 Fold change (vs control)", "setting": "MPST (human)", "result": -1.29, "unit": "log2"}, {"measurement": "Log2 Fold change (vs control)", "setting": "C2orf56 (human)", "result": 0.19, "unit": "log2"}, {"measurement": "Log2 Fold change (vs control)", "setting": "MRPL44 (human)", "result": 1.13, "unit": "log2"}, {"measurement": "Log2 Fold change (vs control)", "setting": "IARS2 (human)", "result": 0.43, "unit": "log2"}, {"measurement": "Log2 Fold change (vs control)", "setting": "NDUFA7 (human)", "result": -2.22, "unit": "log2"}, {"measurement": "Log2 Fold change (vs control)", "setting": "IDI1 (human)", "result": 1.28, "unit": "log2"}, {"measurement": "Log2 Fold change (vs control)", "setting": "TARS2 (human)", "result": -0.25, "unit": "log2"}, {"measurement": "Log2 Fold change (vs control)", "setting": "ACADVL (human)", "result": 0.28, "unit": "log2"}, {"measurement": "Log2 Fold change (vs control)", "setting": "GRSF1 (human)", "result": 1.91, "unit": "log2"}, {"measurement": "Log2 Fold change (vs control)", "setting": "NDUFA2 (human)", "result": -0.23, "unit": "log2"}, {"measurement": "Log2 Fold change (vs control)", "setting": "BCKDHB (human)", "result": 0.79, "unit": "log2"}, {"measurement": "Log2 Fold change (vs control)", "setting": "ARG2 (human)", "result": 0.78, "unit": "log2"}, {"measurement": "Log2 Fold change (vs control)", "setting": "ACADSB (human)", "result": -0.2, "unit": "log2"}, {"measurement": "Log2 Fold change (vs control)", "setting": "LYRM4 (human)", "result": 0.52, "unit": "log2"}, {"measurement": "Log2 Fold change (vs control)", "setting": "NADK2 (human)", "result": 0.06, "unit": "log2"}, {"measurement": "Log2 Fold change (vs control)", "setting": "GLRX5 (human)", "result": -0.26, "unit": "log2"}, {"measurement": "Log2 Fold change (vs control)", "setting": "ETFB (human)", "result": 0.4, "unit": "log2"}, {"measurement": "Log2 Fold change (vs control)", "setting": "FECH (human)", "result": -0.68, "unit": "log2"}, {"measurement": "Log2 Fold change (vs control)", "setting": "MRPS23 (human)", "result": -0.22, "unit": "log2"}, {"measurement": "Log2 Fold change (vs control)", "setting": "NMNAT3 (human)", "result": -4, "unit": "log2"}, {"measurement": "Log2 Fold change (vs control)", "setting": "PCK2 (human)", "result": -0.51, "unit": "log2"}, {"measurement": "Log2 Fold change (vs control)", "setting": "SUPV3L1 (human)", "result": 0.56, "unit": "log2"}, {"measurement": "Log2 Fold change (vs control)", "setting": "PYCR2 (human)", "result": 0.26, "unit": "log2"}, {"measurement": "Log2 Fold change (vs control)", "setting": "ATPAF2 (human)", "result": -0.91, "unit": "log2"}, {"measurement": "Log2 Fold change (vs control)", "setting": "CDK5RAP1 (human)", "result": -0.26, "unit": "log2"}, {"measurement": "Log2 Fold change (vs control)", "setting": "COX5B (human)", "result": 0.46, "unit": "log2"}, {"measurement": "Log2 Fold change (vs control)", "setting": "NDUFAF2 (human)", "result": -0.15, "unit": "log2"}, {"measurement": "Log2 Fold change (vs control)", "setting": "NDUFA12 (human)", "result": -1.02, "unit": "log2"}, {"measurement": "Log2 Fold change (vs control)", "setting": "OXA1L (human)", "result": -1, "unit": "log2"}, {"measurement": "Log2 Fold change (vs control)", "setting": "EARS2 (human)", "result": -0.17, "unit": "log2"}, {"measurement": "Log2 Fold change (vs control)", "setting": "CRAT (human)", "result": -3, "unit": "log2"}, {"measurement": "Log2 Fold change (vs control)", "setting": "MRPL45 (human)", "result": -0.29, "unit": "log2"}, {"measurement": "Log2 Fold change (vs control)", "setting": "NDUFAF5 (human)", "result": -0.47, "unit": "log2"}, {"measurement": "Log2 Fold change (vs control)", "setting": "MRPS11 (human)", "result": -0.34, "unit": "log2"}, {"measurement": "Log2 Fold change (vs control)", "setting": "SDHAF3 (human)", "result": -0.03, "unit": "log2"}, {"measurement": "Log2 Fold change (vs control)", "setting": "ACN9 (human)", "result": -2.14, "unit": "log2"}, {"measurement": "Log2 Fold change (vs control)", "setting": "THNSL1 (human)", "result": 0.03, "unit": "log2"}, {"measurement": "Log2 Fold change (vs control)", "setting": "MRPS24 (human)", "result": 1.12, "unit": "log2"}, {"measurement": "Log2 Fold change (vs control)", "setting": "MRPL21 (human)", "result": -0.72, "unit": "log2"}, {"measurement": "Log2 Fold change (vs control)", "setting": "HSPA1L (human)", "result": -0.71, "unit": "log2"}, {"measurement": "Log2 Fold change (vs control)", "setting": "XPNPEP3 (human)", "result": -0.31, "unit": "log2"}, {"measurement": "Log2 Fold change (vs control)", "setting": "NDUFAF7 (human)", "result": 0.04, "unit": "log2"}, {"measurement": "Log2 Fold change (vs control)", "setting": "MRPL47 (human)", "result": -1.94, "unit": "log2"}]}
